Laboratory results: patent publication US20250249113A1 (DEBIOPHARM RESEARCH AND MANUFACTURING S A, published 2025)
Primed or numbered codes have the meaning given here. Side-chain parts run from the residue outwards. PEG4′ = not defined here; Mal = not defined here

Molecular target: recombinant human Cathepsin B (human, UniProt P07858 80-333)
Experiment: cell-based or functional assay

{DM1-Mal}-FKK([PEG4′-Mal-Cys-Ac])F-OH (reading uncertain; also: printed as DM1-Mal-Phe-Lys-Lys(PEG4-Mal-Cys-Ac)-Phe-OH) [Compound 5: DM1-Mal-Phe-Lys-Lys(PEG4-Mal-Cys-Ac)-Phe-OH]
Cat B-induced drug release, fold faster than the reference Cys-MC-Val-Cit-PABC-MMAF: 20 times
